Laboratory results published in patent US20220177587A1, “METHODS AND USES OF VARIANT CD80 FUSION PROTEINS AND RELATED CONSTRUCTS” (Alpine Immune Sciences, Inc., priority 2018, published 2022).
Where two headings read alike, the source gives them in different places. Each block holds one substance with its values, some of them ahead of it.

Experiments:
[1] = biological target: CD28 (human) (UniProt P10747); test: flow cytometry, Jurkat cells (CD28)
[2] = biological target: PD-L1 (human) (UniProt Q9NZQ7); test: flow cytometry, CHO cells stably expressing PD-L1
[3] = biological target: PD-L1 (human) (UniProt Q9NZQ7); test: flow cytometry, CHO cells expressing huPD-L1
[4] = biological target: human CTLA-4 (human) (UniProt P16410); test: flow cytometry, CHO cells expressing huCTLA-4
Target sequence in this assay (P16410 36-223): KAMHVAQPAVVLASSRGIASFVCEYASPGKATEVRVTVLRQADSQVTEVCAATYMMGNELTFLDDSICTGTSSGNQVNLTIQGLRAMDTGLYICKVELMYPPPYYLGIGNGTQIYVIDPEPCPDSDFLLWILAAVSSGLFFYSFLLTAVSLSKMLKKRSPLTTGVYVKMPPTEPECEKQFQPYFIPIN

[5] = biological target: CD28 (human) (UniProt P10747); test: flow cytometry, Jurkat cells (CD28); remark: listed apart in the source
[6] = biological target: human CTLA-4 (human) (UniProt P16410); test: flow cytometry, CHO cells stably expressing CTLA4
Target sequence in this assay (P16410 36-223): as above

[7] = biological target: PD-L1 (human) (UniProt Q9NZQ7); test: flow cytometry, CHO cells stably expressing PD-L1; remark: listed apart in the source
Target sequence in this assay (Q9NZQ7 19-290): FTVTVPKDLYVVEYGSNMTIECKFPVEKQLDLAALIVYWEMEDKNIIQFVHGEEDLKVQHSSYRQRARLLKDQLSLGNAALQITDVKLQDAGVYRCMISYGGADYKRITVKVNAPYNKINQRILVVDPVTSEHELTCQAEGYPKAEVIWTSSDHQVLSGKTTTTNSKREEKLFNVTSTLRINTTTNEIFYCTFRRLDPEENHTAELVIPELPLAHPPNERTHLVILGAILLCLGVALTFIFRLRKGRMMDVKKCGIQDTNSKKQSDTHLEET

[8] = biological target: PD-L1 (human) (UniProt Q9NZQ7); test: flow cytometry, MFI on PD-L1 cells over MFI on CD28 cells
Target sequence in this assay (Q9NZQ7 19-290): as above

[9] = biological target: human CTLA-4 (human) (UniProt P16410); test: flow cytometry, CHO cells stably expressing CTLA4; remark: listed apart in the source
[10] = biological target: CD28 (human) (UniProt P10747); test: flow cytometry, Jurkat/IL2 reporter cells (CD28)
[11] = biological target: CD28 (human) (UniProt P10747)

EC50 [1]: 164 nM
MFI at 11.1 nM [1]: 139 MFI
EC50 [2]: 31.2 nM
MFI at 11.1 nM [2]: 86 MFI
Substance: WT CD80 ECD-Fc (R&D Systems) (Fc fusion)

MFI at 33.3 nM [1]: 1900 MFI
MFI at 33.3 nM [2]: 14500 MFI
Substance: CD80 IgV-Fc H18Y/E35D/M47I/V68M/A71G/R94L (Fc fusion)

MFI at 33.3 nM [1]: 9620 MFI
MFI at 33.3 nM [9]: 23200 MFI
MFI at 33.3 nM [2]: 73200 MFI
Substance: variant CD80 IgV-Fc (inert) H18V/A26R/E35D/M47L/V68M/A71G/D90G (Fc fusion)

MFI at 33.3 nM [1]: 8390 MFI
MFI at 33.3 nM [9]: 16400 MFI
MFI at 33.3 nM [2]: 20700 MFI
Substance: variant CD80 IgV-Fc (inert) H18F/A26H/E35D/M47L/V68M/A71G/D90G (Fc fusion)

MFI at 33.3 nM [3]: 16600 MFI
Substance: variant CD80 IgV-Fc E35D/M47V/V68M (Fc fusion)

MFI at 33.3 nM [3]: 15300 MFI
MFI at 33.3 nM [4]: 28100 MFI
MFI at 33.3 nM [10]: 159 MFI
Substance: variant CD80 IgV-Fc E35D/M47L/V68M/L85Q (Fc fusion)

MFI at 33.3 nM [9]: 22400 MFI
MFI at 33.3 nM [2]: 68200 MFI
Substance: variant CD80 IgV-Fc (inert) H18V/A26N/E35D/M47V/V68M/A71G (Fc fusion)

MFI at 33.3 nM [3]: 23700 MFI
Substance: variant CD80 IgV-Fc M47V/N48K/V68M/K89N (Fc fusion)

IL-2 release, primary T cells + K562/OKT3 (No PD-L1), 100 nM [11]: 6200
Substance: WT CD80 IgV-Fc (effector) (Fc fusion)

Fold change to WT CD80 [1]: 0.2 fold
MFI at 11.1 nM [1]: 26 MFI
Fold change to WT CD80 [9]: 0 fold
MFI at 11.1 nM [9]: 106 MFI
Fold change to WT CD80 [2]: 1.8 fold
MFI at 11.1 nM [2]: 158 MFI
Substance: Fc control (Example 24)

MFI at 33.3 nM [3]: 118 MFI
MFI at 33.3 nM [4]: 568 MFI
MFI at 33.3 nM [10]: 37.9 MFI
Substance: variant CD80 IgV-Fc V68M (Fc fusion)

Fold change to WT CD80 [5]: 46.6 fold
MFI at 33.3 nM [5]: 2050 MFI
Fold change to WT CD80 [6]: 18.7 fold
MFI at 33.3 nM [6]: 25400 MFI
Fold change to WT CD80 [7]: 407 fold
MFI at 33.3 nM [7]: 17700 MFI
Ratio of PDL1:CD28 [8]: 8.7
Substance: variant CD80 IgV-Fc H18Y/A26E/M47L/A71G/D90G (Fc fusion)

The remaining lines, values behind:

Substance: variant CD80 IgV-Fc V68M/K89N (Fc fusion)
MFI at 33.3 nM [3]: 538 MFI
MFI at 33.3 nM [4]: 2330 MFI

Substance: variant CD80 IgV-Fc A26E/E35D/M47L/V68M/A71G/D90G (Fc fusion)
Fold change to WT CD80 [5]: 50.4 fold
MFI at 33.3 nM [5]: 2210 MFI
Fold change to WT CD80 [6]: 16 fold
MFI at 33.3 nM [6]: 21700 MFI
Fold change to WT CD80 [7]: 693 fold
MFI at 33.3 nM [7]: 30200 MFI
Ratio of PDL1:CD28 [8]: 13.7

Substance: variant CD80 IgV-Fc M47V/N48K (Fc fusion)
MFI at 33.3 nM [3]: 3080 MFI
MFI at 33.3 nM [4]: 44600 MFI
MFI at 33.3 nM [10]: 413 MFI

Substance: variant CD80 IgV-Fc H18Y/E35D/M47L/V68M/A71G (Fc fusion)
Fold change to WT CD80 [5]: 21.1 fold
MFI at 33.3 nM [5]: 928 MFI
Fold change to WT CD80 [6]: 17.4 fold
MFI at 33.3 nM [6]: 23700 MFI
Fold change to WT CD80 [7]: 697 fold
MFI at 33.3 nM [7]: 30400 MFI
Ratio of PDL1:CD28 [8]: 32.7

Substance: variant CD80 IgV-Fc (inert) H18L/E35D/M47V/V68M/A71G/D90G (Fc fusion)
MFI at 33.3 nM [1]: 6350 MFI
MFI at 33.3 nM [9]: 20300 MFI
MFI at 33.3 nM [2]: 64800 MFI

Substance: variant CD80 IgV-Fc V68M/L85Q (Fc fusion)
MFI at 33.3 nM [3]: 347 MFI
MFI at 33.3 nM [4]: 3290 MFI
MFI at 33.3 nM [10]: 91.7 MFI

Substance: variant CD80 IgV-Fc M47V/K89N (Fc fusion)
MFI at 33.3 nM [3]: 622 MFI
MFI at 33.3 nM [4]: 32400 MFI
MFI at 33.3 nM [10]: 197 MFI

Substance: variant CD80 IgV-Fc N48K/V68M (Fc fusion)
MFI at 33.3 nM [3]: 754 MFI
MFI at 33.3 nM [4]: 2340 MFI
MFI at 33.3 nM [10]: 118 MFI

Substance: variant CD80 IgV-Fc (inert) H18R/A26P/E35D/D46N/M47V/V68M/A71G/D90P (Fc fusion)
MFI at 33.3 nM [9]: 17300 MFI
MFI at 33.3 nM [2]: 29300 MFI

Substance: variant CD80 IgV-Fc N48K (Fc fusion)
MFI at 33.3 nM [3]: 481 MFI
MFI at 33.3 nM [4]: 4950 MFI
MFI at 33.3 nM [10]: 60.1 MFI

Substance: variant CD80 IgV-Fc E35D (Fc fusion)
MFI at 33.3 nM [3]: 2580 MFI
MFI at 33.3 nM [4]: 42900 MFI
MFI at 33.3 nM [10]: 134 MFI

Substance: WT CD80 ECD-Fc (Abcam) (from UniProt P33681) (Fc fusion)
MFI at 33.3 nM [3]: 128 MFI
MFI at 33.3 nM [10]: 709 MFI

Substance: variant CD80 IgV-Fc D46V/M47L/V68M/L85Q (Fc fusion)
MFI at 33.3 nM [3]: 29700 MFI
MFI at 33.3 nM [4]: 32500 MFI

Substance: variant CD80 IgV-Fc E35D/D46V/M47V/V68M/K89N (Fc fusion)
MFI at 33.3 nM [3]: 21600 MFI
MFI at 33.3 nM [10]: 2120 MFI

Substance: variant CD80 IgV-Fc N48K/V68M/K89N (Fc fusion)
MFI at 33.3 nM [3]: 11500 MFI
MFI at 33.3 nM [4]: 19100 MFI

Substance: CD80 IgV-Fc E24D/Q27R/E35D/T41S/M47V/L85Q (Fc fusion)
MFI at 33.3 nM [1]: 66 MFI
MFI at 33.3 nM [9]: 13900 MFI
MFI at 33.3 nM [2]: 2860 MFI

Substance: variant CD80 IgV-Fc (inert) H18Y/A26N/E35D/M47F/V68M/A71G/D90G (Fc fusion)
MFI at 33.3 nM [1]: 82.2 MFI
MFI at 33.3 nM [2]: 26500 MFI
